Common to all, as to experiment: co-IP
The target in assay [1] is Cyclin H (human (endogenous in 293T and HFF)) (UniProt P51946).
Assay [2] concerns the target Cyclin T1 (human (endogenous in 293T and HFF)) (UniProt O60563).
In assay [3] the target is Cyclin B1 (human (endogenous in 293T and HFF)) (UniProt P14635).
Sequence of Cyclin B1 (human (endogenous in 293T and HFF)) (P14635 whole entry): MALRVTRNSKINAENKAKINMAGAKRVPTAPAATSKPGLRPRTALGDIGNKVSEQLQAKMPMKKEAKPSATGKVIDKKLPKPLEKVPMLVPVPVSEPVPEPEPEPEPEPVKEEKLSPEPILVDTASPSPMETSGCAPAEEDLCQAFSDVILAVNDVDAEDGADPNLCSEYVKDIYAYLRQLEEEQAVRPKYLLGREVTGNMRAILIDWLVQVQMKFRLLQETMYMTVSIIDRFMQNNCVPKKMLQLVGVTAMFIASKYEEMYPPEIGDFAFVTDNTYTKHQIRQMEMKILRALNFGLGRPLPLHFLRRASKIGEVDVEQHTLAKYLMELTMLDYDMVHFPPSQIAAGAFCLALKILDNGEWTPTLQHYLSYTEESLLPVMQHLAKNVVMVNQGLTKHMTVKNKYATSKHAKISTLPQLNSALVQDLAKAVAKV

Sequence of Cyclin T1 (human (endogenous in 293T and HFF)) (O60563 whole entry): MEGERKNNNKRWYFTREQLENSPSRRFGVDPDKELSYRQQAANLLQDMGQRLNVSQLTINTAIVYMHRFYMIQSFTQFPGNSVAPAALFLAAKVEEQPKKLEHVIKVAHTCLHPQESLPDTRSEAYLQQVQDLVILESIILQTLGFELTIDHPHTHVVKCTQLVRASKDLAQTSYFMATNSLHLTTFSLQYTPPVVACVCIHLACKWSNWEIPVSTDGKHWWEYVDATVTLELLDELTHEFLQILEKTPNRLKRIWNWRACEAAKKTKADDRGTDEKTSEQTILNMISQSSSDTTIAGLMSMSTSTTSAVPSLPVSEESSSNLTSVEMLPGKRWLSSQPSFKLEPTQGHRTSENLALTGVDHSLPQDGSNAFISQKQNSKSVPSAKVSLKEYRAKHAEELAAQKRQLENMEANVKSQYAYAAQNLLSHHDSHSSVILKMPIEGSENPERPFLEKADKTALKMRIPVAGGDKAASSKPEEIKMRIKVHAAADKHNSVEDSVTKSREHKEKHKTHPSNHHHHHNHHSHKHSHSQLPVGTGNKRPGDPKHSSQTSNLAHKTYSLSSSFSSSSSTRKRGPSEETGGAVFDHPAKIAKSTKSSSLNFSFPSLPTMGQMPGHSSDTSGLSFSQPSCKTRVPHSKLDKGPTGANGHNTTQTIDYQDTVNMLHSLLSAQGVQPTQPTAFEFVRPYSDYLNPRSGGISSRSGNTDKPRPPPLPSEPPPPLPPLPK
Sequence of Cyclin H (human (endogenous in 293T and HFF)) (P51946 whole entry): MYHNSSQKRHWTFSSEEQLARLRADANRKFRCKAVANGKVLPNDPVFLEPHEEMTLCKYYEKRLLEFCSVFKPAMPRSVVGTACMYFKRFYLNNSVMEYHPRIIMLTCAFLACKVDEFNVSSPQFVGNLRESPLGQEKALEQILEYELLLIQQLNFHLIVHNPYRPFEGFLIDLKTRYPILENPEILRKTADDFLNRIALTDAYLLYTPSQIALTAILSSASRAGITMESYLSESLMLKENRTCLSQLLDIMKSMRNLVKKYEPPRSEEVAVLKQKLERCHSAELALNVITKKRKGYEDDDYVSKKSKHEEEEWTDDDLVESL

On to “HCMV protein kinase pUL97, Flag-tagged (pUL97-Flag) (from UniProt P16788 1-707) (natural protein)”, for which the pUL97 co-IP Western blot signal relative to cyclin B1 in assay [1] stood at 4%; in assay [2], 9%.
With “Protein kinase pUL97 of HCMV AD169, in infected cells (natural protein)”, the pUL97 co-IP Western blot signal relative to cyclin B1 was found to be 100% in assay [3], 160% in assay [1] and 77% in assay [2].
Regarding “pUL97 stably expressed in transduced HFFs (from UniProt P16788 1-707) (natural protein)”, the pUL97 co-IP Western blot signal relative to cyclin B1 in assay [2] turned out to be 42%.

The values above are taken from publication PMC4997581.
